Reference: patent US20160067305A1 (UNIVERSITY OF HONG KONG, published 2016)

Biological target: T1, FLAG-tagged SIRT1 (ectopically expressed in HEK293 cells) (UniProt Q96EB6 1-747, limits assumed)
T1 construct: Immunoprecipitated from lysate of transfected HEK293 cells; also called FLAG-SIRT1; not shown: FLAG tag
T1 sequence (looked up): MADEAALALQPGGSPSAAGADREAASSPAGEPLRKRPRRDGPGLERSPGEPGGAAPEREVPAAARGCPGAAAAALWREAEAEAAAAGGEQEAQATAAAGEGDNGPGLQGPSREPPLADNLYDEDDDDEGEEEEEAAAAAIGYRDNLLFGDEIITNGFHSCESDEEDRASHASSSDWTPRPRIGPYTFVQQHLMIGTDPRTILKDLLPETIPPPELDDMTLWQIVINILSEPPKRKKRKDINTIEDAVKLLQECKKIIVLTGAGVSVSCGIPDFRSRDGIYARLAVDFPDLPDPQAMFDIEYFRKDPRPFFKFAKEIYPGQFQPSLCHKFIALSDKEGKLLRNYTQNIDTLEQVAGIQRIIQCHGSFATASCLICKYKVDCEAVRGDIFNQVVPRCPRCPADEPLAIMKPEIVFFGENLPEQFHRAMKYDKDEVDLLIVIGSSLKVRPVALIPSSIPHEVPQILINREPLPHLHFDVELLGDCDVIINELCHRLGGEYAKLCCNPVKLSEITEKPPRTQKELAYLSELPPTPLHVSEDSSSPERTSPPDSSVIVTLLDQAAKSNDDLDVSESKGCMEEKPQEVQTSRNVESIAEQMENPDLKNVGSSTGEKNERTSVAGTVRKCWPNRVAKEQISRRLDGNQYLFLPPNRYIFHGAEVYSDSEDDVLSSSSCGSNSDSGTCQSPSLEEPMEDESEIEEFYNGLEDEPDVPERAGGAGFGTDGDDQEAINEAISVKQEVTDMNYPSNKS
Experiment: co-immunoprecipitation in transfected HEK293 cells, Western blot (FIG. 1F)
Description: This was further confirmed by co-immunoprecipitation in HEK293 cells expressing FLAG-SIRT1 together with either lamin A or lamin C.

- binding result: no binding
B1: lamin C (ectopically expressed in HEK293 cells) (other, UniProt P02545-2 1-572, looked up)
chain: METPSQRRATRSGAQASSTPLSPTRITRLQEKEDLQELNDRLAVYIDRVRSLETENAGLRLRITESEEVVSREVSGIKAAYEAELGDARKTLDSVAKERARLQLELSKVREEFKELKARNTKKEGDLIAAQARLKDLEALLNSKEAALSTALSEKRTLEGELHDLRGQVAKLEAALGEAKKQLQDEMLRRVDAENRLQTMKEELDFQKNIYSEELRETKRRHETRLVEIDNGKQREFESRLADALQELRAQHEDQVEQYKKELEKTYSAKLDNARQSAERNSNLVGAAHEELQQSRIRIDSLSAQLSQLQKQLAAKEAKLRDLEDSLARERDTSRRLLAEKEREMAEMRARMQQQLDEYQELLDIKLALDMEIHAYRKLLEGEEERLRLSPSPTSQRSRGRASSHSSQTQGGGSVTKKRKLESTESRSSFSQHARTSGRVAVEEVDEEGKFVRLRNKSNEDQSMGNWQIKRQNGDDPLLTYRFPPKFTLKAGQVVTIWAAGAGATHSPPTDLVWKAQNTWGCGNSLRTALINSTGEEVAMRKLVRSVTVVEDDEDEDGDDLLHHHHVSGSRR
